Reference: US7005258 (NATIONAL INSTITUTES OF HEALTH, dated 2006)

Target: T1, human cdc2 (p34^cdc2, endogenous, HeLa cells) (human, UniProt P06493 1-297)
T1 construct: On p13 beads it is present as cdc2/cyclin B; also called p34^cdc2 kinase
Experiment: precipitation on p13 beads from HeLa lysate

T1 sequence (P06493 whole entry): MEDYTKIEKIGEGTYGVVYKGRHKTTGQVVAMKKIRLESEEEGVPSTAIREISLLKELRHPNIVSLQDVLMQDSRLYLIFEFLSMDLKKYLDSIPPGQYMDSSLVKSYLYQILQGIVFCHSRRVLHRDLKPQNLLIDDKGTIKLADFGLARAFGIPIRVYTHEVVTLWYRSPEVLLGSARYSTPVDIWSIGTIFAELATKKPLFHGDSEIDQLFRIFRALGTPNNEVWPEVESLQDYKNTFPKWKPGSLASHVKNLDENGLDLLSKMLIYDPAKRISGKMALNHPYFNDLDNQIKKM

binding result: binds
B1: p13 protein encoded by the suc1 gene (other, fission yeast, UniProt P08463 1-113, looked up)
chain: MSKSGVPRLLTASERERLEPFIDQIHYSPRYADDEYEYRHVMLPKAMLKAIPTDYFNPETGTLRILQEEEWRGLGITQSLGWEMYEVHVPEPHILLFKREKDYQMKFSQQRGG
notes: also called p13-Suc1; p13 (Sucl)
